Data reported in publication PMC6399207.
Values joined by “and” are separate entries in the source; they are usually repeats but may differ in a detail not shown here. Equal values may be shown once.

How the values were obtained:
[1] = target: Acinetobacter baumannii glutamate-1-semialdehyde-2,1-aminomutase (HemL), N-terminal His-tagged (Acinetobacter baumannii (strain ATCC 19606)); assay: SEC; individually purified protein alone; Superdex 200 10/300 GL, room temperature, 50 mM Na phosphate pH 8.0, 100 mM NaCl; calibrated with ferritin, aldolase, conalbumin, ovalbumin
[2] = target: Acinetobacter baumannii glutamyl-tRNA reductase (HemA), N-terminal His-tagged (Acinetobacter baumannii (strain ATCC 19606)); assay: SEC; sample of AbHemA and AbHemL co-expressed (pET28hemL_(6xHis)-hemA_(6xHis)) and co-purified on NiNTA; Superdex 200 10/300 GL, room temperature, 0.5 mL/min, 50 mM Na phosphate pH 8.0, 100 mM NaCl; fractions checked by SDS-PAGE; also after 16 h at 4°C without or with 0.1 M sodium citrate, and of a sample grown and purified with citrate
[3] = target: Acinetobacter baumannii glutamyl-tRNA reductase (HemA), N-terminal His-tagged (Acinetobacter baumannii (strain ATCC 19606)); assay: SEC; individually purified protein alone; Superdex 200 10/300 GL, room temperature, 50 mM Na phosphate pH 8.0, 100 mM NaCl; calibrated with ferritin, aldolase, conalbumin, ovalbumin

Substance	stoichiometry N [1]	fold increase of the 200 kDa complex fraction with 0.1 M sodium citrate against without citrate [2]	stoichiometry N [3]
Acinetobacter baumannii glutamate-1-semialdehyde-2,1-aminomutase (HemL), N-terminal His-tagged (enzyme)	2	4 fold	–
Acinetobacter baumannii glutamyl-tRNA reductase (HemA), N-terminal His-tagged (enzyme)	–	–	4 and 2
